The values that follow come from article PMC4309369 (Cell reports, 2014).

In general, Kd refers to the free concentration of one partner at which half of the binding sites on the other are occupied at equilibrium, for simple one-to-one binding. Higher therefore signals a looser complex.

Test [1] concerns the target T1, SND1 (16–339) R324A (human, UniProt Q7KZF4 16-339, R324A).
T1 sequence (looked up): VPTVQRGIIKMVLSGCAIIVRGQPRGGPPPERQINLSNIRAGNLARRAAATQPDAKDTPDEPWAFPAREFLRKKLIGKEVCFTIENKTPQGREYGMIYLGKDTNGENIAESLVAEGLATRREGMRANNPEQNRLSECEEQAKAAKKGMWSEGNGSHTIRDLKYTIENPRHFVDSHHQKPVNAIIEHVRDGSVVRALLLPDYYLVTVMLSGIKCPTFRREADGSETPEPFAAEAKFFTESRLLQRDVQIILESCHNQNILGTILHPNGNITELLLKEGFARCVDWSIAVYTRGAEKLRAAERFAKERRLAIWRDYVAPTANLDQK
Briefly: pull-down.

The target of test [2] is T2, SND1 (16–339) R316E (human, UniProt Q7KZF4 16-339, R316E).
T2 sequence (looked up): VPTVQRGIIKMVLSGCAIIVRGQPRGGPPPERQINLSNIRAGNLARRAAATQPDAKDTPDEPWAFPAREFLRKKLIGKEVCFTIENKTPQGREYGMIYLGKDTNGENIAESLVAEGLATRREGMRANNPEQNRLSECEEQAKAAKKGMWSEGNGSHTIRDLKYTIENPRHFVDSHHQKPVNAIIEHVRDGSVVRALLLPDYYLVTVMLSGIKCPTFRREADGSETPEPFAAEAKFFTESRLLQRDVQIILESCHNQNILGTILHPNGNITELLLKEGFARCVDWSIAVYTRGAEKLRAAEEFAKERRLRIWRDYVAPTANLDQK
Briefly: pull-down.

Test [3] addresses T3, SND1 (16–339) R324E (human, UniProt Q7KZF4 16-339, R324E).
T3 sequence (looked up): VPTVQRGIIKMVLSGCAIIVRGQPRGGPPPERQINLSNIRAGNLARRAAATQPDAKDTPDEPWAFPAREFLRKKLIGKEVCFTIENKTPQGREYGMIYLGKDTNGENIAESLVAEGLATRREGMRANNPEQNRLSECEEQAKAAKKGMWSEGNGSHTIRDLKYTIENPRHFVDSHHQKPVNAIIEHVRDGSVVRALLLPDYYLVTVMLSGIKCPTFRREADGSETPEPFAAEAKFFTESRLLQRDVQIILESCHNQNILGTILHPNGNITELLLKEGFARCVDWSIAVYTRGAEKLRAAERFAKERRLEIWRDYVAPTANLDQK
Briefly: pull-down.

Test [4] has as its target T4, SND1 SN1/2 domains (16–339) (human, UniProt Q7KZF4 16-339).
T4 sequence (looked up): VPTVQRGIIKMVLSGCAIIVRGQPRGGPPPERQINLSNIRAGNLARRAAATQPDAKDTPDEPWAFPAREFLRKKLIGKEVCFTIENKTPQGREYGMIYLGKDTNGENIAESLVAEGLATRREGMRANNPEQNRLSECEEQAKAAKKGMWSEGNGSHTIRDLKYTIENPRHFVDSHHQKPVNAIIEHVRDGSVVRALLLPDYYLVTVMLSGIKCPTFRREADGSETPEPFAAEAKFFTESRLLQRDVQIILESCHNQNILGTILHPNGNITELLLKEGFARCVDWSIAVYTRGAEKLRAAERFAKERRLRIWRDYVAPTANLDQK
Briefly: ITC. In general terms: ITC needs no label: the signal is the heat of the interaction.

Test [5] deals with T4, SND1 SN1/2 domains (16–339). The experiment in a line: pull-down.
The target is the same in test [6]. Briefly: crystal structure.

B1: GST-tagged MTDH (364–582) (domain or fragment, human, UniProt Q86UE4 364-582, looked up)
chain: YQWDVSRNQPYIDDEWSGLNGLSSADPNSDWNAPAEEWGNWVDEERASLLKSQEPIPDDQKVSDDDKEKGEGALPTGKSKKKKKKKKKQGEDNSTAQDTEELEKEIREDLPVNTSKTRPKQEKAFSLKTISTSDPAEVLVKNSQPIKTLPPATSTEPSVILSKSDSDKSSSQVPPILQETDKSKSNTKQNSVPPSQTKSETSWESPKQIKKKKKARRET
In the case of B1, the binding result in test [1], in test [2] and in test [3] was “binds” throughout. Also, the Kd in test [4] was around 600 nM.

B2: GST-tagged MTDH (364–582) N403A (domain or fragment, human, UniProt Q86UE4 364-582, looked up)
chain: YQWDVSRNQPYIDDEWSGLNGLSSADPNSDWNAPAEEWGAWVDEERASLLKSQEPIPDDQKVSDDDKEKGEGALPTGKSKKKKKKKKKQGEDNSTAQDTEELEKEIREDLPVNTSKTRPKQEKAFSLKTISTSDPAEVLVKNSQPIKTLPPATSTEPSVILSKSDSDKSSSQVPPILQETDKSKSNTKQNSVPPSQTKSETSWESPKQIKKKKKARRET
As to B2, the binding result in test [5] is “binds”.

B3: GST-tagged MTDH (364–582) E400A (domain or fragment, human, UniProt Q86UE4 364-582, looked up)
chain: YQWDVSRNQPYIDDEWSGLNGLSSADPNSDWNAPAEAWGNWVDEERASLLKSQEPIPDDQKVSDDDKEKGEGALPTGKSKKKKKKKKKQGEDNSTAQDTEELEKEIREDLPVNTSKTRPKQEKAFSLKTISTSDPAEVLVKNSQPIKTLPPATSTEPSVILSKSDSDKSSSQVPPILQETDKSKSNTKQNSVPPSQTKSETSWESPKQIKKKKKARRET
On to B3, for which the binding result in test [5] is listed as “binds”.

B4: GST-tagged MTDH (364–582) E400R (domain or fragment, human, UniProt Q86UE4 364-582, looked up)
chain: YQWDVSRNQPYIDDEWSGLNGLSSADPNSDWNAPAERWGNWVDEERASLLKSQEPIPDDQKVSDDDKEKGEGALPTGKSKKKKKKKKKQGEDNSTAQDTEELEKEIREDLPVNTSKTRPKQEKAFSLKTISTSDPAEVLVKNSQPIKTLPPATSTEPSVILSKSDSDKSSSQVPPILQETDKSKSNTKQNSVPPSQTKSETSWESPKQIKKKKKARRET
With B4, in test [5], the binding result is listed as “binds”.

B5: GST-tagged MTDH (364–582) D389R (domain or fragment, human, UniProt Q86UE4 364-582, looked up)
chain: YQWDVSRNQPYIDDEWSGLNGLSSARPNSDWNAPAEEWGNWVDEERASLLKSQEPIPDDQKVSDDDKEKGEGALPTGKSKKKKKKKKKQGEDNSTAQDTEELEKEIREDLPVNTSKTRPKQEKAFSLKTISTSDPAEVLVKNSQPIKTLPPATSTEPSVILSKSDSDKSSSQVPPILQETDKSKSNTKQNSVPPSQTKSETSWESPKQIKKKKKARRET
In the case of B5, the binding result in test [5] is given as “binds”.

B6: GST-tagged MTDH (364–582) N395A (domain or fragment, human, UniProt Q86UE4 364-582, looked up)
chain: YQWDVSRNQPYIDDEWSGLNGLSSADPNSDWAAPAEEWGNWVDEERASLLKSQEPIPDDQKVSDDDKEKGEGALPTGKSKKKKKKKKKQGEDNSTAQDTEELEKEIREDLPVNTSKTRPKQEKAFSLKTISTSDPAEVLVKNSQPIKTLPPATSTEPSVILSKSDSDKSSSQVPPILQETDKSKSNTKQNSVPPSQTKSETSWESPKQIKKKKKARRET
On to B6, for which the binding result in test [5] is recorded as “binds”. With SSADPNSDWNAPAEEWGNWVDE (peptide, UniProt Q86UE4 386-407, looked up) [MTDH (386–407)], the binding result in test [6] was “binds”.
